Results published in the supplement of paper PMC10126150.
± gives the standard deviation of the averaged measurements.

The sequences below were run on ATP (assay: switch fluorescence ratio, 500 uM ATP over buffer (Cy3 cluster intensity, sum of 5 cycles each) (fold (ratio)); higher = stronger signal-on switching upon ATP binding; sequences stand for … in TCGTCGGCAGCGTCAGATGTGTATAAGAGACAGTTTTTTTTTTTTTTTTTTTTTTTTT…TC). Details: aptamer strand: ATP DNA aptamer (quencher-CACCTGGGGGAGTATTGCGGAGGAAGG + anchor), 100 nM annealed; ATP concentration: 500 uM.
Summary of the method: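 Between each of five buffer/ATP cycles, the flow-cell was stripped with NaOH and re-annealed. Each cycle imaged Cy3-labelled switching-strand clusters, annealed to 100 nM quencher-labelled ATP aptamer on a modified Illumina MiSeq flow-cell, first in selection buffer and then after 15 min with 500 uM ATP at 22 °C. The fluorescence ratio is summed target-cycle over summed buffer-cycle Cy3 intensity per cluster, averaged per switch-domain sequence, with clusters outside 100-1000 RFU excluded.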
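Note: ATP exposure 15 min at 22 °C before imaging.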

In order of rising switch fluorescence ratio:
1. GCGTCTGCGC  0.943 ± 0.085
2. GCGGGTCTGC  0.963 ± 0.028
3. GCGTGGTCAG  0.97027 ± 0.00034
4. GCGGGCGGCG  0.974 ± 0.03
5. GCTAAAGAAA  0.974 ± 0.028
6. GCTAACATTT  0.974 ± 0.029
7. GCGTTTTATT  0.976 ± 0.017
8. GCGTTTAATG  0.977 ± 0.047
9. GCGTTTTGGG  0.979 ± 0.041
10. GCGTAAGTTC  0.981 ± 0.011
11. GCGTCTAAGG  0.981 ± 0.021
12. GCGTTGTCTG  0.982 ± 0.068
13. GCGGGGACTT  0.984 ± 0.038
14. GCTAAAACAG  0.985 ± 0.026
15. GCTAGGGGAA  0.985 ± 0.031
16. GCTATAGAGG  0.9846 ± 0.0072
17. GCGGCTGTGG  0.9861 ± 0.008
18. GCTAGGGGTA  0.987 ± 0.012
19. GCTAGTATAA  0.987 ± 0.027
20. GCTCGGGGGG  0.987 ± 0.031
21. GCGTAATCTT  0.988 ± 0.035
22. GCGTCAAGTG  0.988 ± 0.026
23. GCGTTGTTCG  0.99 ± 0.044
24. GCGGGTCACC  0.992 ± 0.01
25. GCTATTGAAA  0.9922 ± 0.0018
26. GCGTATTGCT  0.993 ± 0.016
27. GCTAGTCTGA  0.9954 ± 0.0019
28. GCTCAAGGAG  0.9951 ± 0.0066
29. GCTAATTTTT  0.996 ± 0.018
30. GCTATAGCGT  0.9958 ± 0.0063
31. GCGTCGGGCA  0.997 ± 0.027
32. GCGGGCAGGC  0.99818 ± 0.00079
33. GCGGGGA  0.998 ± 0.015
34. GCGGTTTTGT  0.998 ± 0.029
35. GCGGCTTGTG  0.9988 ± 0.0089
36. GCGGCTGAAA  1 ± 0.022
37. GCGTATTATT  1.001 ± 0.0043
38. GCGTGTGAGC  1 ± 0.012
39. GCGTTATATT  1 ± 0.018
40. GCTACTGGCA  1.003 ± 0.0077
41. GCTCATGAAT  1 ± 0.023
42. GCTCGTAGTG  1 ± 0.047
43. GCGGCTAGTC  1.012 ± 0.0064
44. GCGGCTGTTA  1.01 ± 0.013
45. GCGGGAGATA  1.01 ± 0.037
46. GCGGGGGGGC  1.01 ± 0.017
47. GCGGGGGGTA  1.01 ± 0.03
48. GCGGGGGGTG  1.01 ± 0.03
49. GCGGGGTTGG  1.01 ± 0.035
50. GCGGGGTTTG  1.01 ± 0.015
51. GCGGTATATG  1.01 ± 0.027
52. GCGGTGGGGT  1.01 ± 0.018
53. GCGTAACTTC  1.01 ± 0.044
54. GCGTATGGAC  1.01 ± 0.02
55. GCGTGAGGCG  1.01 ± 0.02
56. GCGTTATTTT  1.012 ± 0.0076
57. GCGTTTGTGC  1.007 ± 0.01
58. GCTACGATGT  1.01 ± 0.049
59. GCTATTCGAA  1.01 ± 0.061
60. GCTATTGGAT  1.01 ± 0.02
61. GCTCGTAGTT  1.01 ± 0.046
62. GCTCTAATTG  1.008 ± 0.0058
63. GCGGGAATGG  1.02 ± 0.0037
64. GCGGTCCACG  1.02 ± 0.022
65. GCGTCGGGTG  1.019 ± 0.008
66. GCGTGCCTCG  1.02 ± 0.036
67. GCGTTATGTG  1.017 ± 0.01
68. GCGTTCCGTA  1.02 ± 0.039
69. GCGTTTAATT  1.02 ± 0.03
70. GCTAAAAGCT  1.02 ± 0.011
71. GCTACGGGGG  1.02 ± 0.037
72. GCTCACAGAA  1.02 ± 0.019
73. GCTCGGGGTA  1.02 ± 0.013
74. GCTCTACTGG  1.024 ± 0.0021
75. GCGGTGGATG  1.03 ± 0.012
76. GCGTGAGGGG  1.03 ± 0.05
77. GCGTGATGCC  1.03 ± 0.075
78. GCTACTTAAA  1.03 ± 0.025
79. GCGGCTTCGG  1.04 ± 0.032
80. GCGGGTATGT  1.04 ± 0.023
81. GCGTCAACTG  1.04 ± 0.023
82. GCGTCAAGAT  1.04 ± 0.042
83. GCGTTGGGAC  1.042 ± 0.0036
84. GCGTTGTGGA  1.04 ± 0.02
85. GCGTTTAAGA  1.04 ± 0.021
86. GCTAACCGTA  1.04 ± 0.023
87. GCTAGGCGGA  1.0381 ± 0.0006
88. GCGGGAAACT  1.05 ± 0.032
89. GCGGGCAATG  1.052 ± 0.0089
90. GCTACGTGTT  1.053 ± 0.007
91. GCGGCGTCAA  1.064 ± 0.0067
92. GCGGGGCAAG  1.06 ± 0.11
93. GCGGGGGGTC  1.06 ± 0.091
94. GCTATTTACT  1.06 ± 0.076
95. GCTACCATAT  1.07 ± 0.015
96. GCTAAAATAG  1.11 ± 0.15
97. GCGTAAGGCC  1.14 ± 0.21
98. GCTATTCGAC  1.16 ± 0.022
99. GCGGGGGTCC  1.17 ± 0.31
100. GCTACAGGGG  1.18 ± 0.25
